From patent US20260176365A1 (SYNTHEKINE, published 2026) come the findings set out here.

T1: hGP130-his (Sino Biological, Catalog# 10974) (human, UniProt P40189 23-619)
T1 construct: Bought reagent; also called extracellular domain of gp130; not shown: C-terminal poly-His tag
T1 sequence: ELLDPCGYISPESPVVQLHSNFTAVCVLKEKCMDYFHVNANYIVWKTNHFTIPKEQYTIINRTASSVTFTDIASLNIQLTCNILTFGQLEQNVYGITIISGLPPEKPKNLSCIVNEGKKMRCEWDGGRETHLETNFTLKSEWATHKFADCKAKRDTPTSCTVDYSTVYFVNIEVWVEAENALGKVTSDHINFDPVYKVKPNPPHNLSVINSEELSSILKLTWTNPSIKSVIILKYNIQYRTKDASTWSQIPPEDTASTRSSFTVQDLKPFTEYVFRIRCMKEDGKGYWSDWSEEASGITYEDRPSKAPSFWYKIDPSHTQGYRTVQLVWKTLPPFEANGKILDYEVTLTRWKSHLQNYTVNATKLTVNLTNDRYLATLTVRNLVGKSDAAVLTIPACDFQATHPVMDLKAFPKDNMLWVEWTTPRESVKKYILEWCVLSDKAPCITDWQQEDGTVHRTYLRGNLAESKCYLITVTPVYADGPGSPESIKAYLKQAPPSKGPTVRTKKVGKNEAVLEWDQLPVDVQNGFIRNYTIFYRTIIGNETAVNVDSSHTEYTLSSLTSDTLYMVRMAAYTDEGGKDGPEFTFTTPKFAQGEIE

T2: mgp130 ECD antigen (mouse, UniProt Q00560 23-617)
T2 construct: Antigen of biopanning and PE-ELISA; The immunogen was an ECD-human IgG1 hinge-Fc fusion; also called ECD of mouse gp130; ngp130 ECD antigen (so in the source)
T2 sequence: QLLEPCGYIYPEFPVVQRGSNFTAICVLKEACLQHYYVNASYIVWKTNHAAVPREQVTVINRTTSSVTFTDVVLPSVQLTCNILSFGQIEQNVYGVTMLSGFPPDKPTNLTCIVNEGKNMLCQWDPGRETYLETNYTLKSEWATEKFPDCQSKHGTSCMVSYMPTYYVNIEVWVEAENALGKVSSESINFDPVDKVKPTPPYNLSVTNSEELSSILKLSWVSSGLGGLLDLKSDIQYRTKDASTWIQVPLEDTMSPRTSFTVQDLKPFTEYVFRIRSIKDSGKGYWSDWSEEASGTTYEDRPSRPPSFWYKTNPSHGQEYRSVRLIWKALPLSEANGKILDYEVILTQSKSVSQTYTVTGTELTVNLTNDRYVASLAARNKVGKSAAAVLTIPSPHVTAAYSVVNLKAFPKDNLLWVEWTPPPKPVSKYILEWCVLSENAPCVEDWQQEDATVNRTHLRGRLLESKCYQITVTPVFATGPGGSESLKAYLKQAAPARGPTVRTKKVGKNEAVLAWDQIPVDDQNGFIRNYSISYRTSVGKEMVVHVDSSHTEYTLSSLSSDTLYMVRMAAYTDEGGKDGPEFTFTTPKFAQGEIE

B1: DR594 Mono-Fc VHH (Fc fusion)
chain: QVQLQESGGGSVQAGGSLRLSCVASASTYCTYDMHWYRQAPGKGREFVSAIDSDGTTRYADSVKGRFTISQGTAKNTVYLQMNSLQPEDTAMYYCKTVCVVGSRWSDYWGQGTQVTVSS
notes: Mono-Fc format is not described further; also called anti-hGP130 Mono-Fc VHH; not shown: Fc part of the Mono-Fc format
B2: DR592 Mono-Fc VHH (Fc fusion)
chain: QVQLQESGGGSVQAGGSLRLSCTAPGFTSNSCGMDWYRQAPGKEREFVSSISTDGTTGYADSVKGRFTISKDKAKDTVYLQMNSLKPEDTGMYSCKTKDGTIATMELCDFGYWGQGTQVTVSS
notes: as for B1
B3: DR595 Mono-Fc VHH (Fc fusion)
chain: QVQLQESGGGSVQAGGSLTLSCAASEYAYSTCNMGWYRQAPGKERELVSAFISDGSTYYADSVKGRFTITRDNAKNTVYLQMNSLKPEDTAIYYCSANCYRRLRNYWGQGTQVTVSS
notes: as for B1
B4: DR591 Mono-Fc VHH (Fc fusion)
chain: QVQLQESGGGSVQAGGSLRLSCTASGAIASGYIDSRWCMAWFRQAPGKEREGVAAIWPGGGLTVYADSVKGRFTISRDHAKNTLYLQMNNLKPEDTAMYYCAAGSPRMCPSLEFGFDYWGQGTQVTVSS
notes: as for B1
B5: DR593 Mono-Fc VHH (Fc fusion)
chain: QVQLQESGGGSVQAGGSLRLSCAASGYPYSNGYMGWFRQAPGKEREGVATIYTGDGRTYYADSVKGRFTISRDNAKNTVDLQMSSLKPEDTAMYYCAARAAPLYSSGSPLTRARYNVWGQGTQVTVSS
notes: as for B1
B6: DR596 Mono-Fc VHH (Fc fusion)
chain: QVQLQESGGGLVQPGGSLRLSCTASGLTFDDSVMGWFRQAPGKGREAVSCISSSGANAFYADSVKGRFTISRDNAKNTLYLQMNSLKPEDTATYYCKRGHACAGYYPIPYDDYWGQGTQVTVSS
notes: as for B1
B7: mgp130_VHH16 Mono-Fc VHH (Fc fusion, not shown: a dimerising Fc or GST)
chain: QVQLQESGGGLVQPGGSLRLSCAASGFTFRNYAMSWVRQAPGKGLEWVSAINSGGGSTYYADSVKGRFTISRDNAKNTLYLQMNSLKPEDTAMYYCAKHVTGDYDPSLRYEYNYWSQGTQVTVSS
B8: mgp130_VHH48 Mono-Fc VHH (Fc fusion, not shown: a dimerising Fc or GST)
chain: QVQLQESGGALVQPGGSLRLSCAASGFTFSYYAMKWVRQAPGKGLEWVSSISGGGGATYYADSVKGRFTISRDNTNDTLYLQMNSLKTEDTAVYYCAAQNLDYRGQGTQVTVSS
B9: mgp130_VHH44 Mono-Fc VHH (Fc fusion, not shown: a dimerising Fc or GST)
chain: QVQLQESGGGLVQPGGSLRLSCTASGFTFNSAHLKWERQPPGKGLEWVSFITNGGASTGYADSVKGRFTISRDDAKNTLYLQMNNLKTEDTAVYYCATGGLRGQGTQVTVSS
B10: mgp130_VHH5 Mono-Fc VHH (Fc fusion, not shown: a dimerising Fc or GST)
chain: QVQLQESGGGSVQAGGSLRLSCVISGFTYRQTFMGWFRQVVGKEREGVAAISTGGGSTIYADSVKGRFTISQDSSKDTVYLEMNGLKLEDTGMYYCAASTVITSESINRNLYQYWGQGTQVTVSS
B11: mgp130_VHH6 Mono-Fc VHH (Fc fusion, not shown: a dimerising Fc or GST)
chain: QVQLQESGGGLVQPGGSLRLSCAASGFTLSTYWMYWVRQAPGKGPEWVSAVSRGGFNTYYADSVKGRFTISRDNAKNTVYLQMNSLKPEDTAVYYCMSSVSFYGWPPDRVPSPTGQGTQVTVSS
B12: mgp130_VHH13 Mono-Fc VHH (Fc fusion, not shown: a dimerising Fc or GST)
chain: QVQLQESGGGSVQPGGSLRLSCAASGFTFSTYDMSWVRQAPGKGLEWVSTINYSGSSTYYVDSVLGRFTIARDNAKNTLYLQMNNLQTEDTAVYYCASVKERRSNGHPIVFGDRGQGTQVTVSS
B13: mgp130_VHH3 (VHH)
VHH: QVQLQESGGGLVQPGGSLRLSCAASGFTLSTYWIYWVRQAPGKGPEWVSTVSRSGGTTYYADSVNGRFTISRDNAKNTVYLQMNNLKPEDAAVYYCLASVSNLGWPPVRAPSPTGQGTQVTVSS
notes: As periplasmic extract of the phage clone; also called anti-mouse gp130 VHH; not shown: HA/His tag of the pMECS phagemid
B14: mgp130_VHH40 (VHH)
VHH: QVQLQESGGGLVQPGGSLRLSCAASGFTFSNYAMSWVRQAPGKGVEWVSAINSGGSVFYADSVKGRFTISRDNAKNTLYLQLSSLKTEDTAMYYCAKHVTGDYDPSLRYGYNVWSQGTQVTVSS
notes: as for B13
B15: mgp130_VHH6 (VHH)
VHH: QVQLQESGGGLVQPGGSLRLSCAASGFTLSTYWMYWVRQAPGKGPEWVSAVSRGGFNTYYADSVKGRFTISRDNAKNTVYLQMNSLKPEDTAVYYCMSSVSFYGWPPDRVPSPTGQGTQVTVSS
notes: as for B13
B16: mgp130_VHH13 (VHH)
VHH: QVQLQESGGGSVQPGGSLRLSCAASGFTFSTYDMSWVRQAPGKGLEWVSTINYSGSSTYYVDSVLGRFTIARDNAKNTLYLQMNNLQTEDTAVYYCASVKERRSNGHPIVFGDRGQGTQVTVSS
notes: as for B13

In the first assay the target is T1, hGP130-his (Sino Biological, Catalog# …). Put plainly: SPR (Biacore T200), Mono-Fc VHH captured on Protein A chip, hGP130-his in solution, 1:1 fit. The procedure: A representative example from each hgp130 VHH and mgp130 VHH clonotype generated in accordance with Examples 1-3 was selected for evaluation of binding via SPR as follows. […] All experiments were conducted in 10 mM Hepes, 150 mM NaCl, 0.05% (v/v) Polysorbate 20 (PS20) and 3 mM EDTA (HBS-EP+ buffer) on a Biacore T200 instrument equipped with a Protein A derivatized sensor chip (Cytiva). Mono-Fc VHH ligands were flowed at 5 μl/min for variable time ranging from 18 to 300 seconds, reaching the capture loads listed in the tables below. Following ligand capture, […], typically comprising at least five concentrations between 1 μM and 1 nM, were performed in either high performance or single cycle kinetics mode. Surface regeneration was achieved by flowing 10 mM glycine-HCl, pH 1.5 (60 seconds, 50 μL/min). Buffer-subtracted sensograms were processed with Biacore T200 Evaluation Software and globally fit with a 1:1 Langmuir binding model (bulk shift set to zero) to extract kinetics and affinity constants (kₐ, kd, KD). RMAX<100 RU indicates surface density compatible with kinetics analysis. Calculated Rₘₐₓ values were generated using the equation: Rₘₐₓ=Load (RU)×valency of ligand×(Molecular weight of analyte/Molecular weight of ligand). Surface activity was defined as the ratio of experimental/calculated Rmax.
On the technique in general: SPR reads the build-up and loss of mass on a sensor chip optically.
Turning to B1, binding was characterised by a dissociation constant (Kd) of 58 nM; the off-rate constant (koff) – broadly, the rate constant with which the complex falls apart – is 0.0095 s⁻¹; the kon (commonly a measure of how fast the partners come together) was 160000 M⁻¹ s⁻¹.

For the molecule B2, the Kd (commonly a measure of binding affinity in units of concentration) came out at 38 nM, the koff was found to be 0.0059 s⁻¹ and the kon came to 160000 M⁻¹ s⁻¹.

With B3, binding was put at a Kd of 41 nM, the koff is 0.0073 s⁻¹ and the kon was 180000 M⁻¹ s⁻¹.

In turn, B4 showed a dissociation constant Kd of 33 nM, a koff of 0.0019 s⁻¹ and a kon of 59000 M⁻¹ s⁻¹.

Molecule B5 had a dissociation constant Kd of 82 nM, a koff of 0.021 s⁻¹ and a kon of 250000 M⁻¹ s⁻¹.

In the case of B6, the equilibrium dissociation constant (Kd) was determined as 44 nM, the off-rate constant (koff) is 0.0082 s⁻¹ and the kon worked out at 190000 M⁻¹ s⁻¹.

The target of another assay is hGP130-his (Sino Biological, Catalog# 10974) (human) (UniProt P40189). The assay is described as above.
As for B7, the Kd was 17.4 nM, the off-rate (koff) amounted to 0.00036 s⁻¹ and the kon is 21000 M⁻¹ s⁻¹.

B8: the Kd was 42 nM, the off-rate (koff) is 0.0018 s⁻¹ and the kon is 43000 M⁻¹ s⁻¹.

B9 returned a Kd of 6 nM, an off-rate (koff) of 0.0012 s⁻¹ and a kon of 200000 M⁻¹ s⁻¹.

As to B10, the Kd is 90 nM, the dissociation rate constant (koff) came to 0.0081 s⁻¹ and the association rate constant (kon) is 90000 M⁻¹ s⁻¹.

For B11, the Kd turned out to be 229 nM, the off-rate (koff) stood at 0.03 s⁻¹ and the kon was found to be 130000 M⁻¹ s⁻¹.

With B12, the Kd stood at 35.6 nM, the off-rate constant (koff) was found to be 0.0037 s⁻¹ and the association rate constant (kon) is 110000 M⁻¹ s⁻¹.

For a further assay, the target named is T2, mgp130 ECD antigen. As to the kind of experiment: periplasmic extract ELISA (PE-ELISA) of phage clones.
As to B13, the binding result is reported as “binds”.

For the molecule B14, the binding result is reported as “binds”.

As to B15, the binding result is “binds”.

For B16, the binding result is on record as “binds”.
